Reference: the supplement of paper PMC9112550, “Optimization of the antimicrobial peptide Bac7 by deep mutational scanning” (BMC Biology, 2022)

Tested on: Escherichia coli TOP10
Experiment: shrunken log2 fold change of peptide-encoding DNA abundance (4.5 h post-induction vs induction); higher = less antimicrobial activity (less host growth inhibition)
Details: time post-induction: 4.5 h; library: site-saturation at positions 5, 18, 19, 20
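Note: peptides expressed intracellularly from a pBAD plasmid library in pooled LB shake-flask culture, induced with 0.3% L-arabinose, DNA abundance read by NGS, three biological replicates, DESeq2 with apeglm shrinkage.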

| Sequence | shrunken log2 fold change |
| --- | --- |
| RRIRVRPPRLPRPRPRPWHVPRP | -0.0616 |
| RRIRVRPPRLPRPRPRPWIDPRP | -0.134 |
| RRIRVRPPRLPRPRPRPWIHPRP | -0.349 |
| RRIRVRPPRLPRPRPRPWIRPRP | -0.151 |
| RRIRVRPPRLPRPRPRPWKFPRP | -0.00968 |
| RRIRVRPPRLPRPRPRPWKYPRP | -0.0321 |
| RRIRVRPPRLPRPRPRPWLKPRP | 0.151 |
| RRIRVRPPRLPRPRPRPWLWPRP | 0.475 |
| RRIRVRPPRLPRPRPRPWPHPRP | -0.103 |
| RRIRVRPPRLPRPRPRPWQAPRP | -0.0138 |
| RRIRVRPPRLPRPRPRPWQWPRP | -0.0592 |
| RRIRVRPPRLPRPRPRPWRMPRP | 0.077 |
| RRIRVRPPRLPRPRPRPWSLPRP | -0.0384 |
| RRIRVRPPRLPRPRPRPWSYPRP | -0.0283 |
| RRIRVRPPRLPRPRPRPWTPPRP | 0.158 |
| RRIRVRPPRLPRPRPRPWVIPRP | -0.43 |
| RRIRVRPPRLPRPRPRPWVTPRP | -0.375 |
| RRIRVRPPRLPRPRPRPWVVPRP | -0.0754 |
| RRIRVRPPRLPRPRPRPWVWPRP | 0.292 |
| RRIRVRPPRLPRPRPRPWWKPRP | 0.0375 |
| RRIRVRPPRLPRPRPRPWWSPRP | 0.0392 |
| RRIRVRPPRLPRPRPRPWYIPRP | -0.0193 |
| RRIRVRPPRLPRPRPRPYAFPRP | -0.0621 |
| RRIRVRPPRLPRPRPRPYDWPRP | -0.206 |
| RRIRVRPPRLPRPRPRPYEAPRP | -0.157 |

| Sequence | shrunken log2 fold change |
| --- | --- |
| RRIRVRPPRLPRPRPRPYENPRP | -0.293 |
| RRIRVRPPRLPRPRPRPYFHPRP | -0.738 |
| RRIRVRPPRLPRPRPRPYFPPRP | 0.109 |
| RRIRVRPPRLPRPRPRPYFSPRP | -0.267 |
| RRIRVRPPRLPRPRPRPYGVPRP | -0.153 |
| RRIRVRPPRLPRPRPRPYKPPRP | -0.757 |
| RRIRVRPPRLPRPRPRPYNFPRP | -0.577 |
| RRIRVRPPRLPRPRPRPYNTPRP | -0.326 |
| RRIRVRPPRLPRPRPRPYPRPRP | 0.0644 |
| RRIRVRPPRLPRPRPRPYQSPRP | -0.0308 |
| RRIRVRPPRLPRPRPRPYQTPRP | -0.0531 |
| RRIRVRPPRLPRPRPRPYQYPRP | -0.0296 |
| RRIRVRPPRLPRPRPRPYSGPRP | -0.00858 |
| RRIRVRPPRLPRPRPRPYTFPRP | -0.314 |
| RRIRVRPPRLPRPRPRPYTTPRP | -0.721 |
| RRIRVRPPRLPRPRPRPYVLPRP | -1.12 |
| RRIRVRPPRLPRPRPRPYYFPRP | -0.777 |
| RRIRWRPPRLPRPRPRPAAEPRP | 1.21 |
| RRIRWRPPRLPRPRPRPAALPRP | 0.257 |
| RRIRWRPPRLPRPRPRPAARPRP | 0.622 |
| RRIRWRPPRLPRPRPRPACLPRP | 0.521 |
| RRIRWRPPRLPRPRPRPACTPRP | 0.334 |
| RRIRWRPPRLPRPRPRPADSPRP | -0.29 |
| RRIRWRPPRLPRPRPRPAFIPRP | 0.0835 |
| RRIRWRPPRLPRPRPRPAHEPRP | 0.1 |

| Sequence | shrunken log2 fold change |
| --- | --- |
| RRIRWRPPRLPRPRPRPAICPRP | -0.0928 |
| RRIRWRPPRLPRPRPRPAIQPRP | 0.0853 |
| RRIRWRPPRLPRPRPRPAKQPRP | 0.0759 |
| RRIRWRPPRLPRPRPRPALGPRP | 0.645 |
| RRIRWRPPRLPRPRPRPALRPRP | 0.243 |
| RRIRWRPPRLPRPRPRPAMNPRP | -0.326 |
| RRIRWRPPRLPRPRPRPAPAPRP | 1.38 |
| RRIRWRPPRLPRPRPRPAPWPRP | 0.319 |
| RRIRWRPPRLPRPRPRPAPYPRP | -0.0336 |
| RRIRWRPPRLPRPRPRPAQMPRP | 0.173 |
| RRIRWRPPRLPRPRPRPAREPRP | 0.138 |
| RRIRWRPPRLPRPRPRPARTPRP | 0.705 |
| RRIRWRPPRLPRPRPRPASWPRP | 0.576 |
| RRIRWRPPRLPRPRPRPATDPRP | 0.258 |
| RRIRWRPPRLPRPRPRPATEPRP | 0.479 |
| RRIRWRPPRLPRPRPRPATFPRP | 0.311 |
| RRIRWRPPRLPRPRPRPATTPRP | 0.859 |
| RRIRWRPPRLPRPRPRPATVPRP | 0.111 |
| RRIRWRPPRLPRPRPRPAVQPRP | 0.792 |
| RRIRWRPPRLPRPRPRPAWGPRP | 0.477 |
| RRIRWRPPRLPRPRPRPAWIPRP | 0.035 |
| RRIRWRPPRLPRPRPRPAWKPRP | 0.143 |
| RRIRWRPPRLPRPRPRPAYMPRP | -0.205 |
| RRIRWRPPRLPRPRPRPCCAPRP | 0.47 |
| RRIRWRPPRLPRPRPRPCCTPRP | 0.0894 |

| Sequence | shrunken log2 fold change |
| --- | --- |
| RRIRWRPPRLPRPRPRPCDWPRP | 0.0315 |
| RRIRWRPPRLPRPRPRPCFLPRP | -0.462 |
| RRIRWRPPRLPRPRPRPCGGPRP | 0.123 |
| RRIRWRPPRLPRPRPRPCGTPRP | 0.481 |
| RRIRWRPPRLPRPRPRPCHCPRP | -0.102 |
| RRIRWRPPRLPRPRPRPCHMPRP | -0.0433 |
| RRIRWRPPRLPRPRPRPCIDPRP | -0.0447 |
| RRIRWRPPRLPRPRPRPCINPRP | -0.374 |
| RRIRWRPPRLPRPRPRPCIWPRP | 0.0256 |
| RRIRWRPPRLPRPRPRPCKNPRP | -0.0451 |
| RRIRWRPPRLPRPRPRPCKRPRP | 0.118 |
| RRIRWRPPRLPRPRPRPCLCPRP | -0.0914 |
| RRIRWRPPRLPRPRPRPCLPPRP | -0.341 |
| RRIRWRPPRLPRPRPRPCMEPRP | -0.0563 |
| RRIRWRPPRLPRPRPRPCMYPRP | -0.325 |
| RRIRWRPPRLPRPRPRPCNLPRP | -0.161 |
| RRIRWRPPRLPRPRPRPCNSPRP | -0.281 |
| RRIRWRPPRLPRPRPRPCPQPRP | -0.134 |
| RRIRWRPPRLPRPRPRPCPSPRP | 0.0767 |
| RRIRWRPPRLPRPRPRPCPWPRP | -0.0137 |
| RRIRWRPPRLPRPRPRPCQEPRP | -0.15 |
| RRIRWRPPRLPRPRPRPCQMPRP | -0.0107 |
| RRIRWRPPRLPRPRPRPCQTPRP | -0.0122 |
| RRIRWRPPRLPRPRPRPCSQPRP | 0.0161 |
| RRIRWRPPRLPRPRPRPCTGPRP | -0.0547 |

| Sequence | shrunken log2 fold change |
| --- | --- |
| RRIRWRPPRLPRPRPRPCTRPRP | -0.161 |
| RRIRWRPPRLPRPRPRPCWDPRP | 0.0945 |
| RRIRWRPPRLPRPRPRPCWRPRP | 0.0637 |
| RRIRWRPPRLPRPRPRPCYRPRP | 0.131 |
| RRIRWRPPRLPRPRPRPDAIPRP | -0.0199 |
| RRIRWRPPRLPRPRPRPDAKPRP | 0.0403 |
| RRIRWRPPRLPRPRPRPDCAPRP | 0.97 |
| RRIRWRPPRLPRPRPRPDFSPRP | -0.0269 |
| RRIRWRPPRLPRPRPRPDFVPRP | 0.0377 |
| RRIRWRPPRLPRPRPRPDHIPRP | -0.0546 |
| RRIRWRPPRLPRPRPRPDIMPRP | 0.0439 |
| RRIRWRPPRLPRPRPRPDINPRP | 0.235 |
| RRIRWRPPRLPRPRPRPDKRPRP | -0.00125 |
| RRIRWRPPRLPRPRPRPDLIPRP | 0.0332 |
| RRIRWRPPRLPRPRPRPDMKPRP | 0.0231 |
| RRIRWRPPRLPRPRPRPDNKPRP | -0.571 |
| RRIRWRPPRLPRPRPRPDNNPRP | -0.0431 |
| RRIRWRPPRLPRPRPRPDPNPRP | 0.196 |
| RRIRWRPPRLPRPRPRPDQFPRP | -0.0202 |
| RRIRWRPPRLPRPRPRPDRLPRP | -0.0216 |
| RRIRWRPPRLPRPRPRPDSFPRP | 0.00192 |
| RRIRWRPPRLPRPRPRPDSIPRP | -0.243 |
| RRIRWRPPRLPRPRPRPDSKPRP | -0.133 |
| RRIRWRPPRLPRPRPRPDSWPRP | 0.251 |
| RRIRWRPPRLPRPRPRPDVIPRP | -0.118 |

| Sequence | shrunken log2 fold change |
| --- | --- |
| RRIRWRPPRLPRPRPRPDVNPRP | -0.125 |
| RRIRWRPPRLPRPRPRPEARPRP | 0.106 |
| RRIRWRPPRLPRPRPRPEAVPRP | 1.05 |
| RRIRWRPPRLPRPRPRPECKPRP | 0.685 |
| RRIRWRPPRLPRPRPRPECMPRP | 0.623 |
| RRIRWRPPRLPRPRPRPECPPRP | 0.341 |
| RRIRWRPPRLPRPRPRPEDEPRP | 0.0692 |
| RRIRWRPPRLPRPRPRPEDRPRP | 0.213 |
| RRIRWRPPRLPRPRPRPEEHPRP | 0.23 |
| RRIRWRPPRLPRPRPRPEFIPRP | 0.186 |
| RRIRWRPPRLPRPRPRPEFLPRP | 0.374 |
| RRIRWRPPRLPRPRPRPEFRPRP | 0.422 |
| RRIRWRPPRLPRPRPRPEFSPRP | 0.109 |
| RRIRWRPPRLPRPRPRPEGEPRP | 1.27 |
| RRIRWRPPRLPRPRPRPEGQPRP | 4.45 |
| RRIRWRPPRLPRPRPRPEIEPRP | 0.193 |
| RRIRWRPPRLPRPRPRPEILPRP | -0.0318 |
| RRIRWRPPRLPRPRPRPEKCPRP | 0.0983 |
| RRIRWRPPRLPRPRPRPEKFPRP | 0.0209 |
| RRIRWRPPRLPRPRPRPEKKPRP | 0.0589 |
| RRIRWRPPRLPRPRPRPEKSPRP | 0.486 |
| RRIRWRPPRLPRPRPRPEKWPRP | 0.0948 |
| RRIRWRPPRLPRPRPRPELQPRP | 0.326 |
| RRIRWRPPRLPRPRPRPELTPRP | 0.772 |
| RRIRWRPPRLPRPRPRPEPHPRP | 0.65 |
